# Assay results reported in the DeepSol protein solubility set.
# Experiment: soluble on expression in E. coli; label from the status in PepcDB or PDB records
row,Sequence,soluble on expression in E. coli
1,MDDQIKQIAERLRGLRDVLELTAEDIARDCEISAEEYRLAETGDYDISVSMLQKIARKYGIALDALMFGEEPKMSSYFLTRAGKGTSIERTKAYKYQSLAAGFMNRNADPFIVTVEPKPDIEPIHYNSHSGQEFNLVLEGRMMISIDGKDLILNEGDSLYFNSKLPHGMKALDGKTVRFLAVIM,not soluble
2,MAHHHHHHMDPPAAFERRYPELGALRLHFDVLDSTQLYCKRNMARLLQNGSLQDDKHMVVVTCNEQTNGIGTRDTKKKQDRMWLSERGNLFTTFVLLWKREDLEKVKYLSQTSTVAVSKTLEHFHLVTQIKWVNDVLVNEKKIAGCLVHLHYLDDFPSLSRYACVMVGIGINITLRDKDNLLGDNYTSVQKELQRDFGSFCSIPSVEDVMDKLILNLHAVFTKLREEGFSSFLDYITPRLLYKDRNVLVDTDGELIAGHLQGLLHDGSLLLLRGENELVRVNTGHLRLG,soluble
3,MIIYTTPTALILEEQGERVEFDRRNGKVLEKPEESLEILDQDVVLCGNVEFLIGKISFDEQHFLFFVVDSSVVACYRGTSAESSHSIRRIERVIAINVKSDGSVIKSQITPGSGTKLKQGTEKIMKFFAEKVTKAEPRPALLDDVLKLFNDSKDFYFCRSRDVTISSQKYFEKREAHTSEDSFFWNKRMVGNLGEAKISDKFTCPIMQGYVATSQLEITDQINAYLTITIISRRSTRRAGARYLRRGIDEASNVANFVETELILNIFEHELSFVQCRGSIPVFWSQRGFKYRPPLIINRSVEETHGVFTEHFKRLKAHYDTPLVAVSLVDQRGRELPLAQRFLEHCVKADDNDVTFFSFDLHQHCRGLNFQKLQTLISSMEETLKTIGFCWVDKTGEVVQSQKGVVRTNCIDCLDRTNLVQGQISLFVVLQQAQRLGIFGPLCEPPEVLVQTMQTMWADNGDVISTQYAGTAALKGDVTRNGERKLMGVMKDGYNSASRYYLTHTKDAQRQKAINIVTGQTEADENAEEEENEKEEEENISRMVTETIQFLVPTQQTVIAGWGLINAFQSSDEIDTVVILTRSNLYIVTYEIDGEKMTDVQIVALEDINTIQTGTSGNNRQCARLETLEGVFIWRPSTVRLFNNTAIRLKSLEEANEYISSVAEQIQVGRNMLTGAEGSVVPVAKITIPQMSVHRKSMAAMGALFGKIKRVGKPSSLSKSASTISTAQLPETDGNESDASQKSDHLMTKILKMSQFKSDSPQPEPFSSLLPAISECQTKISLL,not soluble
4,QRSHVASCSHSLSVIQFNLFYENSDINQFINYLLRHPADLVVMQELTPRVGSLLHMLDDVYPHYHGGQRDVGYPSNLMILSRHPITEVSVYRAPNGQEVIRAVWLPKGQAPITLFAAHPPSPRTSELWHQRNALVRTIETLTALYPEPEVLVVGDFNLSSVSPRFSTLFPSFQTAPVTSWPTNIKGINVPEPMMIGIDHLWLKSEQGQRIICSRESSALPQGSDHRMVTTQIGVHIP,not soluble
5,MGVTLAKGGNVSLDKQAPNLTAVAVGLGWDARSTTGHEFDLDASALATGENKKVLSDQHFVFYNNLRSPDGSIQHEGDNLTGEGDGDDEVINVDLKAVPPNVTNIFFPVSIHEAELRGQNFGQVTNAFIRVVDRSTGNELVRYDLSEDASSETAMTFGELYRHNGEWKFRAIGQGYASGLSGIARDYGVNI,not soluble
6,MPSIYKSVTINTSKEMMCFSDFPVPDHFPNYMHNSKLMDYFGMYATHFGLLNYIRFKTEVQSVRKHPDFSINGQWDVVVETEEKQETLVFDGVLVCSGHHTDPYLPLQSFPGIEKFEGCYFHSREYKSPEDFSGKRIIVIGIGNSGVDIAVELSRVAKQI,not soluble
7,MAHHHHHHMAKRKYMSKVDGKINVGEKHQAKIPDLVTDENEKTNVEETQPVENVNNVNDDVRKNKKAKTEQVEETTNNAAEEQVQQEEPVETAPAHEEPAHGEEAQGEEVQGEEAQGEEVQGEEVQGEEAHEEPANDEPANDEPANDEPANEEPANEEPANEEPANEEPANEEPANEEPANEEPANE,not soluble
8,MNEFEDLLNSVSEVNPGDVVTAEVLTVDGEQANLVIDGTGVEAVLTLRELTNDRNADINDFVKAGDKVEVLVLRQVVGKDTDTVTFLVSKKRLEARKAWDKLVGREGDVVTVKGTRAVKGGLSVEFEGLRGFIPASMIDTRFVRNTEKFVGQQFEAKIKEIDPSENRFILSRRDVVEAAAAKAREEVFSRLAVGDIVTGTVARLTSFGAFIDLGGVDGLVHITELSHERNVSPKSVVTVGEEIQVKVLAIDEEAGRVSLSLKATTPGPWDGVEQKLAAGDVIEGKVKRLTDFGAFVEVLPGIDGLVHISQISHKRVENPKDVLSVGQDVTVKVLDVNTADERVSLSIKALEERPAQDESNGEKRQSRPRRQKRQDKRDYELPETQTGFSMADLFGDIELLEHHHHHH,soluble
9,MNEQYSALRSNVSMLGKVLGETIKDALGEHILERVETIRKLSKSSRAGNDANRQELLTTLQNLSNDELLPVARAFSQFLNLANTAEQYHSISPKGEAASNPEVIARTLRKLKNQPELSEDTIKKAVESLSLELVLTAHPTEITRRTLIHKMVEVNACLKQLDNKDIADYEHNQLMRRLRQLIAQSWHTDEIRKLRPSPVDEAKWGFAVVENSLWQGVPNYLRELNEQLEENLGYKLPVEFVPVRFTSWMGGDRDGNPNVTADITRHVLLLSRWKATDLFLKDIQVLVSELSMVEATPELLALVGEEGAAEPYRYLMKNLRSRLMATQAWLEARLKGEELPKPEGLLTQNEELWEPLYACYQSLQACGMGIIANGDLLDTLRRVKCFGVPLVRIDIRQESTRHTEALGELTRYLGIGDYESWSEADKQAFLIRELNSKRPLLPRNWQPSAETREVLDTCQVIAEAPQGSIAAYVISMAKTPSDVLAVHLLLKEAGIGFAMPVAPLFETLDDLNNANDVMTQLLNIDWYRGLIQGKQMVMIGYSDSAKDAGVMAASWAQYQAQDALIKTCEKAGIELTLFHGRGGSIGRGGAPAHAALLSQPPGSLKGGLRVTEQGEMIRFKYGLPEITVSSLSLYTGAILEANLLPPPEPKESWRRIMDELSVISCDVYRGYVRENKDFVPYFRSATPEQELGKLPLGSRPAKRRPTGGVESLRAIPWIFAWTQNRLMLPAWLGAGTALQKVVEDGKQSELEAMCRDWPFFSTRLGMLEMVFAKADLWLAEYYDQRLVDKALWPLGKELRNLQEEDIKVVLAIANDSHLMADLPWIAESIQLRNIYTDPLNVLQAELLHRSRQAEKEGQEPDPRVEQALMVTIAGIAAGMRNTG,soluble
10,MAHHHHHHMKRLIQSLQHFSVTSSEHVELFSKITLRDFGFYVSDADAMRYVADEAYSIAERAFQLENALHQHRLSASTAQVSPMAWKSSSNDTVGCSTLYQDEAVTLCWFVLPPGKVLPLHDHPGMTVWQRAMHGRLHLCSITREAVSQTSTGASTAPINGTVVFDGELDGVGDAIPASDVLGFTPTDGDGGGMLHEIRNIDATQPALFVDIISPPYNQASSSMVCGYYTAEPLNATATLLPALAADCGVRHQLKAGDKVRLRPRTNYSGPAMNAFLHVV,not soluble
11,GPGSMTDRLTAEDVFYELSTIRDPERPDCTLADLDVVAMNRCRVEYIESSADFQSLRGQGCNDSGKPSVVVKVILQPTVPHCSLMEFICLCVYVRLREVFSLSNNAKFDITLVDGSHVRQRELEKQVADKERLAAAMEDKALLQEVERHINCE,soluble
12,MSLGSDIPTLRAALARSDAWLVACFCAAWCDTCQQYRPKLLELARARPGHTFAWIDIEDHPDLLGEEDVENFPTLLVQAHGKVLFYGPMLPHIGHLERLLDSLDPQGREGHHHHHH,soluble
13,MGSDKIHHHHHHMSAFWPFRLTTGCNVNLKFLETFIWVAKLRSFSLAADKLHSTQAAISSRISVLEQELGAKLFTREPKGVALTRAGERVLQHAEQVNESMTRLYASLQDEKFAFGTIRIGAMDSAIHSWFVNFVSDVMHYYPNLDIEVTSETALNLNEQLRRGMLDMVIQTDMLRDETIRSIEVLELSMGWVAAANSPIVSQEAYDTPTAALRGLGRERLITYSRHSRPHQDLLRLMQSYGIGESRVSCVNSVAAMIQLTQAGFGVAAMPPALVPELLNSGVLRQLEGLEAPPPLPFVIAWRSGTNWTERLVEVAVETVSKYAARLGQDAARLVV,not soluble
14,MSAVLTAEDTLVLASTATPVEMELIMGWLGQQRARHPDSKFDILKLPPRNAPPAALTALVEQLEPGFASSPQSGEDRSIVPVRVIWLPPADRSRAGKVAALLPGRDPYHPSQRQQRRILRTDPRRARVVAGESAKVSELRQQWRDTTVAEHKRDFAQFVSRRALLALARAEYRILGPQYKSPRLVKPEMLASARFRAGLDRIPGATVEDAGKMLDELSTGWSQVSVDLVSVLGRLASRGFDPEFDYDEYQVAAMRAALEAHPAVLLFSHRSYIDGVVVPVAMQDNRLPPVHMFGGINLSFGLMGPLMRRSGMIFIRRNIGNDPLYKYVLKEYVGYVVEKRFNLSWSIEGTRSRTGKMLPPKLGLMSYVADAYLDGRSDDILLQGVSICFDQLHEITEYAAYARGAEKTPEGLRWLYNFIKAQGERNFGKIYVRFPEAVSMRQYLGAPHGELTQDPAAKRLALQKMSFEVAWRILQATPVTATGLVSALLLTTRGTALTLDQLHHTLQDSLDYLERKQSPVSTSALRLRSREGVRAAADALSNGHPVTRVDSGREPVWYIAPDDEHAAAFYRSSVIHAFLETSIVELALAHAKHAEGDRVAAFWAQAMRLRDLLKFDFYFADSTAFRANIAQEMAWHQDWEDHLGVGGNEIDAMLYAKRPLMSDAMLRVFFEAYEIVADVLRDAPPDIGPEELTELALGLGRQFVAQGRVRSSEPVSTLLFATARQVAVDQELIAPAADLAERRVAFRRELRNILRDFDYVEQIARNQFVAREFKARQGRDRILEHHHHHH,not soluble
15,MSLDLDRKLIEILDILSKSKEPVGAKIIAKELNKRGYKIGERAVRYHLKLLDGMKLTKKVGYAGRVITERGLEELEKANISYRLGSIYSNILEKTISANYRFGYVVINRCQVYADFNDVLKIIKSVYESGLAVGDRVGIIDREKFVEINTLCSLNFDNILLQNGIFPLHVCAGVVKYEDGKPVEFKEIIDYKSTSIDPLRAFIEKKETDVMGIIENGEGYLPANFRYFGVEFLERFETILEIDELKCIISYGTENVLGLDVGDDKVGVALIGGLTPIAPFVENNYCVEICPMSSIVRLESLHKLKKNPRDIVTKKANIRIKTALSKMFNAMAKVTYDIDEADGDVIVNTAFIDKKYLDEAFDILKEAYKKGLGISDRFGIVEENDRIKIQTICAVTLDGIFLRNSVPLIPKYGGILEITEDKERFIDIIGYDGSSLDPHEVFFNFVDCEKTFLAGFREVHRVAREKLEEVLKKLNWNGIKAIGEPNNELYGIGVNKDMCGVVTMGGINPLVLLKENEIPIELKAMHEVVRFSDLKSYKEIEGHHHHHH,not soluble
16,SSGRSVRAETRSRAKDDIKKVMAATERVRRWEKKWVTVGDTSLRIFKWVPVTETKQIYKPKGAGPAVRELKGFPTDVVLENARSVLLDFQDDNSNQSFLSDAYQSNTKVDSSSNSSPQHVSEAVSPSHPPYYRTEDSQPPTLGQESMEAEREASTTSSEVTDEPPTLIKEDVLSLSTQEEEEAIGAPPLKRVCTEHNSTVS,soluble
17,MAHHHHHHMNTFNYIRSPTGVHEVDGPPNDCVSTVRFSPSGCPYLLLGAASWDKTCRVWQVIHQPNAINIRSQPMTFAVSDAPILDMSFSADGRVFWGGCSKTATMWNLTTNQKIIVGSHDLPVSCIAHVSSNTGTEMLVTGSWDGRLRFWDLRQPMPIKEEILGEPVFGLDAQRSFPMAACVTGRKVHIFNLQTMMKTNELKPPPLLKFNLGCVACSPQKDGVVVGSSEGRLSFIPLQAEVGCTFKAHVLVEDNVLYMHQTNFCVISPRVPHMISGGGDGRIGCWDYKKRSIVGYGESETRLENRNKSISAGDISADGSLLAFARSYDWAMGKTGCIPNEPHSIHIRSAEWKSALS,not soluble
